In a protein production outcome set (Wang et al. 2014):

Experiment: label from the status in PepcDB records
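Note: failed if final PepcDB status was selected cloned or expressed and not failed if soluble or beyond.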

| Sequence | protein production |
| --- | --- |
| MGKTLTGFHLKVIGVISMVFDHLLQFFSFLGVPGWFGWIGRIAAPIFLFESSEGFIHTSNRRKYMFRLLLGFWIMGILNGFLNAYFSTGGLIINNIFGTLFLGTVYMQSMDYFKQKQIGKGLLWFIVPLLISALPLVVFSSPDILSNPAILIGFQIFNLIVPSLMMTEGGFLFVLLAVAFYLFHGKKWLQISAIGVVALISAASYNFQELFGVNHQWMMILAAIPIVLYNGEKGRGMRNFFYIFYPAHIAIFAIISFFMQR | failed |
| MPAKRRSNARPARAWPTCLSRGSSAVKRVHVAAAVIRDASGKILIARRADTQHQGGLWEFPGGKVEPGEAVEAALARELQEELGIAVTAARPLIKVQHDYPDKQVLLDVWEVSAFSGEPHGAEGQPLAWVTARELADYEFPAANQPIVAAARLPAQYLITPEGLETPTLLRGMQKAVAQGCKLIQLRAPGGYDPQYRDLAVDAVGLCAGKAQLMLKGPFEWLGDFPSAGWHITAAQLRKYASAGRPFGKDRWLAASCHNAEELSLAQQMDVDFVTLSPVQPTQTHPDAQPLGWQQAEQLISGFNKPVYLLGGVGPAECQQAWAAGAQGVAGIRAFWPQD | failed |
| MGFFSRDIQTMEDLLLHGLRDIYYAEQQITKALPKMIEQATNRDLSQGLTSHLEETQKQIERLDQVFKKLGQKPSGVNCPAIDGLIKEADETAGEIADKTVLDAAIVANAQAVEHYEIARYGTLIAWAEELGHDDIVRFLTTNLNEEKAANTKLNTVALRKGVNRKAAS | not failed |
| KMLDEKFYSKLLGEELDLIICLPPDFSPLYKYPLFIVQDGKDYFQFGKLARHSEELAVNEQIQKAIFIGIPYKTVMDRREKYHPDGEQNEAYIRFLAFELVPYLEERFPSFQMPTSRFL | not failed |
| MSDNAKHHRDGHLVASGLQDRAARTPQHEGFLGPDRPWHLSFSLLLAGSFVLFSWWAFDYAGSGANKVILVLATVVGMFMAFNVGGNDVANSFGTSVGAGTLTMKQALLVAAIFEVSGAVIAGGDVTETIRSGIVDLSGVSVDPRDFMNIMLSALSAAALWLLFANRMGYPVSTTHSIIGGIVGAAIALGMVSGQGGAALRMVQWDQIGQIVVSWVLSPVLGGLVSYLLYGVIKRHILLYNEQAERRLTEIKKERIAHRERHKAAFDRLTEIQQIAYTGALARDAVAANRKDFDPDELESDYYRELHEIDAKTSSVDAFRALQNWVPLVAAAGSMIIVAMLLFKGFKHMHLGLTTMNNYFIIAMVGAAVWMATFIFAKTLRGESLSRSTFLMFSWMQVFTASGFAFSHGSNDIANAIGPFAAILDVLRTGAIEGNAAVPAAAMVTFGVALCAGLWFIGRRVIATVGHNLTTMHPASGFAAELSAAGVVMGATVLGLPVSSTHILIGAVLGVGIVNRSTNWGLMKPIVLAWVITLPSAAILASVGLVALRAIF | failed |
| MEINADFTKPVVIDTDQLEWRPSPMKGVERRMLDRIGGEVARATSIVRYAPGSRFSAHTHDGGEEFIVLDGVFQDEHGDYPAGTYVRNPPTTSHVPGSAEGCTIFVKLWQFDPADRTQFSKNMEAELGAPVEGISTSLLHEDERETVTHRKLEPGANLTSEAAGGIEVLVLDGDVTVNDEVLGRNAWLRLPEGEALSATAGARGAKIWMKTGHLRFVRTPEV | not failed |
| MSQQKHADQDYALETVPSESKKGFLPMFAIMLGFTFFSASMWAGGTIGTGLKFQTFLLAVLMGNLLLGLYTGALAYIGSSTGLSTHLLARYSFGEKGSYLASFILAITQVGWFGVGVAMFSLPVHYATGIDLNILLLLSGILMTTTAYFGIKSLTVLSMISVPAITLLGIYSVTGAVNSIGGISELFAIEPANNLGLAVGLSLCIGSFISGGTLTPDFSRFSKSKSIGVISTFIAFFIGNSLMFIFGAVGASTLGQSDISEVMLKQGLIIPAIIILGLNIWTTNDNALYASGLGFSNITKIPKKHVVIFNGLIGTLGALVLYNNFVGWLTLLSSIIPSIGGIIISDYFINKRQKYASLENIKVKKVHWNAVIAWVLGVFASQFLPGISPINAVFGSAIIYIVLETLKKNNI | failed |
| MNKDFTFTIKSSCFDENYNPSENTRITTNFANLARGKSRQENLRNTLVMMDNRFNTLAYWDNPKANRYSVELEIISVEIDIEGNGDTFPAIEILKTNIVDKKTNERIEGIVGNNFSSYVRDYDFSVLLPEHNKSHPGFSTPDNFGDLHGKLFKCFTNSKFYKDNFNKQPVICLSVSSKNTYHRTGNQHPVLGIEYQQNEPSLTDHYFERMGLQARYFMPANSVAPLAFYFSGDLLNDYTNLELISTISTMETFQKIYRPEIYNANSAAGQYYQPNLNNQDHSLTKIVYDRVERSQLAIEQGKFTEEHFIKPYKNILEQWSAHYAR | not failed |
| MSIADAEFAQAKTAQSAPTAAKPQLPPGVVTEGPLVKAKLRESYLLLGILYVGAVAGIIWAVTQGVGKVELFTFAWMFALTTFGIGAGMHRLFVHRSFRTGPIMRVFFCAIAQMAVQGSIAKWVANHRRHHLYADDVGDPHSPQFDGFGNRYVSALKGFLHAQGSWVFDQATTDNEYYAKDILADPIAMFFVRTRWVWYGMSAVFIPGFIGYVFGGVHTMIGCVLFSGLLRAYLLILVSQLTGSVCHAYGYRRFEVDDASTNEFVTTILTFGEGLHNNHHRFPRDAYISHAWWEIDLNGLIILGMEKIGLVHDVFHASHRQLERASEAQAASTR | failed |
| MRQTFIARKISFISLIHFRDEYMSPQNNHLQRPPAAVLYADELAKLKQNDNAPCPPGWQLSLPAARAFILGDEAQNISRKVVISPSAVERMLVTLATGRGLMLVGEPGTAKSLLSELLATAISGDAGLTIQGGASTTEDQIKYGWNYALLINHGPSTEALVPAPLYQGMRDGKIVRFEEITRTPLEVQDCLLGMLSDRVMTGPELTGEASQLYAREGFNIIATANTRDRGVNEMSAALKRRFDFETVFPIMDFAQELELVASASARLLAHSGIPHKVPDAVLELLVRTFRDLRANGEKKTSMDTLTAIMSTAEAVNVAHAVGVRAWFLANRAGEPADLVECIAGTIVKDNEEDRARLRRYFEQRVATHKEAHWQAYYQARHRLP | failed |
| MTGGAAAAPPGRGAAFSWCLFDFANSGYPTVVATFVFSAYVTKAVAATPEAGTAAWGYAMGASGLLIALLAPIFGAVADHSGRRKPWLGLFSLLCVASTALMWTIRPDPAFLLAALVLAALSNAAFEIGGVFYNAMLPDVTTPERMGRLSGWAWGLGYAGGLACLVIALLALVQADPPPFGLDKAAAEPVRATLVLVALWFVVFGWPLFAFVPERPTGRVLALGAAARGAIDSLKGLPALFRGDPRLGWFLLARMLYTEGLNTLFAFGGIYAAGTFDMGFDQIIVFGIGLNITAGLGAFAFGWIDDWLGSPRTIVVGLIGLIGFCVAVLLVEDTAWFVGLALTMGIFFGPVQAASRTHIARVAPPDRRGELFGLFALTGKISAFAGPLAVGLATDLSGSQRLGMATVVVFLVAGLGLLVKTRAPRG | failed |
| MARPNFRYTHYDLKELRAGTTLEISLSSVNNVRLMTGANFQRFTELLDFKYLGGVAKKSPIRIAVPETMHWHLIIDAEGHSGLAESSVKMLPAQPQATLTRKAS | not failed |
| MNTHLKQLIEISHLDKEIDSLEPLIREKRKDLDKALNDKEAKNKAILNLEEEKLALKLQVSKNEQTLQDTNTKIASIQKKMSEIKSERELRSLNIEEDIAKERSNQANREIENLQNEIKHKSEKQEDLKKEMLELEKLVQQLESLVENEVKNIKETQQIIFKKKEELVEKTEPKIYSFYERIRRWAKNTSIVTIKKQACGGCFIRLNDKIYTEVLTSGDMITCPYCGRILYAEG | failed |
| MTIKQTDNINDDDLVYSNATDLPVGVKKSPKMSPTARVGLLVFGVIAAVGWGAIAFSRGETINSVWLVLAAVGSYIIAFSFYARLIEYKVVKPKDQRATPAEYVNDGKDYVPTDRRVLFGHHFAAIAGAGPLVGPVMAAQMGYLPGTLWIILGVIFAGAVQDYLVLWVSTRRRGRSLGQMVRDEMGTVGGAAGILATISIMIIIIAVLALIVVNALADSPWGVFSITMTIPIALFMGVYLRYLRPGRVTEVSIIGVALLLLAIVAGGWVADTSWGVEWFTWSKTTLALALIGYGIMAAILPVWLLLAPRDYLSTFMKIGVIGLLAVGILFARPEVQMPSVTSFALEGNGPVFSGSLFPFLFITIACGALSGFHALISSGTTPKLVEKESQMRMLGYGGMLMESFVAMMALITAVILDRHLYFSMNAPLALTGGDPATAAEWVNSIGLTGADITPEQLSEAAESVGESTVISRTGGAPTLAFGMSEILSGFIGGAGMKAFWYHFAIMFEALFILTTVDAGTRVARFMMTDTLGNVPGLRRFKDPSWTVGNWISTVFVCALWGAILLMGVTDPLGGINVLFPLFGIANQLLAAIALALVLVVVVKKGLYKWAWIPAVPLAWDLIVTMTASWQKIFHSDPAIGYWAQNANFRDAKSQGLTEFGAAKSPEAIDAVIRNTMIQGILSILFAVLVLVVVGAAIAVCIKSIRARAAGTPLETTEEPDTESEFFAPTGFLASSRDKEVQAMWDERYPGGAPVSSGGH | not failed |
| FKGKNLLVIQVESLENFVINKSVNGQEITPNLNKLLKNSLYFSNYNEEVNQGTTSDAELMTNTSIYPVSTGSTFFRYPDNKYYNSLPKILERQGYYTQAMHGDKGSYWNWKPALKSIGFQNIVDSTGFKDDENIGLGLSDGSFLRQAEPMVEASKGPWYNYVITMSGHAPFDLPTKYRELKINSELDSSYLGGYLQSVHYEDKQIGIFLDNLRKSGALDNTMVVIYGDHCGIHKYYQSDVETTKGAESWMIDNHKEVPLIVYNSSLKGKEITTTGGQIDLMPTILYLMGIDKNEYLNTAMGRNLLNTNESYAVWSNGEFIG | failed |
| MDGYTGSHVVRCALRLAPLVFVRPGELRKAEWKDIDLDGGEWRYTVTKTNTPHIVPLSTQAVEILKELQALTGRSRFVFPGARTNGRPMSDNAILAALRRMGIDKEEMSGHGFRAMARTILDEVLGVRPDFIEHQLAHSVRDPLEHHHHHH | failed |
| MSLGRFVRHALITAGTKGLGKQVTEKLLAKGYSVTVTYHSDTTAMETMKETYKDVEERLQFVQADVTKKEDLHKIVEEAMSHFGKIDFLINNAGPYVFERKKLVDYEEDEWNEMIQGNLTAVFHLLKLVVPVMRKQNFGRIINYGFQGADSAPGWIYRSAFAAAKVGLVSLTKTVAYEEAEYGITANMVCPGDIIGEMKEATIQEARQLKEHNTPIGRSGTGEDIARTISFLCEDDSDMITGTIIEVTGAVDVIHREGHHHHHH | not failed |
| MLADELTIGPIRAVPMDITPKYVGIASGLMNAGSAVADIISPIAFGIIIDKTGNWSLPFYGSVALLVIGIFLTFFMRPDKSL | failed |
| MSEVQITFRKAREQDLMTYFNWANDEVTRKNSFGTNKIDLKTHTEWFLKKISSPDSLLLVFEDAAKIPVGQVRIECGEEEAVIGISIDSAFRGKSLSAFMIDSACTEYFRNFTKPIAAHIKATNTASVKAFEKAGFILKEEYTVDQELRFILLRQHV | failed |
| MNTLIASLEKVILPFAVKIGKQPHVNAIKNGFIRLMPLTLTGAMFVLINNVFLSFGEGSFFYSLGVRLDASTIETLNSLKSIGGSVYNGTLGIMSLMTPFFISMALAEERKVDPLASALLAVAAFMTVTPFNVGEAYAVGANWLGGANIISGMVIGLAVAEMFAFIVRRNWVISLPDSVPASVSRSFSALIPGFIILSIMGLVAFALAHWGTNFHQIIMDGISAPLAKMGSVVGWVYVLFSSLLWFFGVHGSMALAALDSGIMTPFALENVELYNKYGSVEAAVAAGKEFHMWAKPFVDSYIYLGGTGSTLGLIIAIFIASRREDYRQVAKLATPSGIFQINEPILFGLPVIMNPVMFIPFILVQPVLTIITSLAYYSGLIPPITNIAPWTMPVGLGAFFNTNGSIMAMLLSLFNLAVATVIYLPFVAISNKAQSQIDAATESEEDIAKALKF | failed |
| EKEFYLDSSSEALEEKAITHTSKKPDTPEEITISLNGHLFTGNTEQPLLMQVEEAGLSINNSCRAGLCGACRVTLESGEVEQEDSPALNQKLKEAGMILACCSVPKTDVEIVD | failed |
| DPDEDSDNSAIYVQGLNDSVTLDDLADFFKQCGVVKMNKRTGQPMIHIYLDKETGKPKGDATVSYEDPPTAKAAVEWFDGKDFQGSKLKVSLARKKPPMN | not failed |
